From paper PMC12674617

B1: full-length BICD2 tagged on the C-terminus with mini-TurboID (BICD2-mTrbo) [human] / Dynein intermediate chain (DYNC1I1) [human (endogenous in HEK293)] (parent)
chain 1: MSAPSEEEEYARLVMEAQPEWLRAEVKRLSHELAETTREKIQAAEYGLAVLEEKHQLKLQFEELEVDYEAIRSEMEQLKEAFGQAHTNHKKVAADGESREESLIQESASKEQYYVRKVLELQTELKQLRNVLTNTQSENERLASVAQELKEINQNVEIQRGRLRDDIKEYKFREARLLQDYSELEEENISLQKQVSVLRQNQVEFEGLKHEIKRLEEETEYLNSQLEDAIRLKEISERQLEEALETLKTEREQKNSLRKELSHYMSINDSFYTSHLHVSLDGLKFSDDAAEPNNDAEALVNGFEHGGLAKLPLDNKTSTPKKEGLAPPSPSLVSDLLSELNISEIQKLKQQLMQMEREKAGLLATLQDTQKQLEHTRGSLSEQQEKVTRLTENLSALRRLQASKERQTALDNEKDRDSHEDGDYYEVDINGPEILACKYHVAVAEAGELREQLKALRSTHEAREAQHAEEKGRYEAEGQALTEKVSLLEKASRQDRELLARLEKELKKVSDVAGETQGSLSVAQDELVTFSEELANLYHHVCMCNNETPNRVMLDYYREGQGGAGRTSPGGRTSPEARGRRSPILLPKGLLAPEAGRADGGTGDSSPSPGSSLPSPLSDPRREPMNIYNLIAIIRDQIKHLQAAVDRTTELSRQRIASQELGPAVDKDKEALMEEILKLKSLLSTKREQITTLRTVLKANKQTAEVALANLKSKYENEKAMVTETMMKLRNELKALKEDAATFSSLRAMFATRCDEYITQLDEMQRQLAAAEDEKKTLNSLLRMAIQQKLALTQRLELLELDHEQTRRGRAKAAPKTKPATPSL
chain 2: MSDKSDLKAELERKKQRLAQIREEKKRKEEERKKKEADMQQKKEPVQDDSDLDRKRRETEALLQSIGISPEPPLVQPLHFLTWDTCYFHYLVPTPMSPSSKSVSTPSEAGSQDSGDLGPLTRTLQWDTDPSVLQLQSDSELGRRLHKLGVSKVTQVDFLPREVVSYSKETQTPLATHQSEEDEEDEEMVESKVGQDSELENQDKKQEVKEAPPRELTEEEKQQILHSEEFLIFFDRTIRVIERALAEDSDIFFDYSGRELEEKDGDVQAGANLSFNRQFYDEHWSKHRVVTCMDWSLQYPELMVASYNNNEDAPHEPDGVALVWNMKFKKTTPEYVFHCQSSVMSVCFARFHPNLVVGGTYSGQIVLWDNRSHRRTPVQRTPLSAAAHTHPVYCVNVVGTQNAHNLITVSTDGKMCSWSLDMLSTPQESMELVYNKSKPVAVTGMAFPTGDVNNFVVGSEEGTVYTACRHGSKAGIGEVFEGHQGPVTGINCHMAVGPIDFSHLFVTSSFDWTVKLWTTKHNKPLYSFEDNADYVYDVMWSPVHPALFACVDGMGRLDLWNLNNDTEVPTASVAIEGASALNRVRWAQAGKEVAVGDSEGRIWVYDVGELAVPHNDEWTRFARTLVEIRANRADSEEEGTVELSA

Variants of: B1
Assay: co-immunoprecipitation (V5 trap beads) with western blot quantification
Conditions: parent: 1, read off a plot

ratio to parent | Variant
5.1 | chain 1 R694C
1.8 | chain 1 N188T
4.6 | chain 1 R747C
